Test results taken from patent US20170137467A1 (CHROMOTEK, published 2017).
Residue numbers refer to the chain shown, from its start.

T1: BC2T A6V (human)
T1 construct: position 6 library (BC2TA6X), row V
T1 peptide: Ac-PDRKAVVSHWQQ-NH2

T2: BC2T V7A (human)
T2 construct: position 7 library, row A
T2 peptide: Ac-PDRKAAASHWQQ-NH2

T3: BC2T V7G (human)
T3 construct: position 7 library, row G
T3 peptide: Ac-PDRKAAGSHWQQ-NH2

T4: BC2T V7M (human)
T4 construct: position 7 library, row M
T4 peptide: Ac-PDRKAAMSHWQQ-NH2

T5: BC2T D2G (human)
T5 construct: position 2 library, row G
T5 peptide: Ac-PGRKAAVSHWQQ-NH2

T6: BC2T D2V (human)
T6 construct: position 2 library, row V
T6 peptide: Ac-PVRKAAVSHWQQ-NH2

T7: BC2T R3G (human)
T7 construct: position 3 library (BC2TR3X), row G
T7 peptide: Ac-PDGKAAVSHWQQ-NH2

T8: BC2T K4G (human)
T8 construct: position 4 library, row G
T8 peptide: Ac-PDRGAAVSHWQQ-NH2

T9: BC2T K4M (human)
T9 construct: position 4 library, row M
T9 peptide: Ac-PDRMAAVSHWQQ-NH2

T10: BC2T P1V (human)
T10 construct: position 1 library, row V
T10 peptide: Ac-VDRKAAVSHWQQ-NH2

T11: BC2T A5V (human)
T11 construct: position 5 library, row V
T11 peptide: Ac-PDRKVAVSHWQQ-NH2

T12: BC2T A5M (human)
T12 construct: position 5 library, row M
T12 peptide: Ac-PDRKMAVSHWQQ-NH2

B1: BC2 nanobody (BC2-Nb) (VHH)
VHH: QVQLVESGGGLVQPGGSLTLSCTASGFTLDHYDIGWFRQAPGKEREGVSCINNSDDDTYYADSVKGRFTIFMDNAKDTVYLQMNSLKPEDTAIYYCAEARGCKRGRYEYDFWGQGTQVTVSS
notes: immobilised on agarose/sepharose beads in this assay; also called BC2 nanotrap (immobilised form); not shown: C-terminal 6xHis-tag added by pHEN6 vector
B2: BC2-NbR106E (VHH)
VHH: B1 VHH with R106E
notes: immobilised on beads in this assay; not shown: C-terminal 6xHis-tag added by pHEN6 vector
B3: BC2-NbR106S (VHH)
VHH: B1 VHH with R106S
notes: as for B2

Biological target: T1, BC2T A6V
Test: library pulldown, LC-MS of supernatant; ratio vs GFP-Nb control (0=captured, 1=not captured)
Text: (§1) In total, 12 different BC2T libraries displaying all 20 proteinogenic amino acids in one single position of the peptide were used in immunoprecipitation experiments. […] The direct comparison with the GFP-Nb made it possible to determine the quantitative degree of peptide capture without the need of labeled standards. […] The more peptide was captured the more the value approximates 0. It was not possible to discriminate between isoleucine (I) and leucine (L) peptide versions since these peptides are isobaric.
(§2) To investigate the binding specificity of the BC2T and derived mutants peptide libraries for each amino acid position of the sequence […] (SEQ ID NO:4) were synthesized with acetyl and amide groups located at the N-termini or C-termini respectively (Intavis). […] Incubations were performed in 300 μl PBS/0.01% CHAPS for 1 h on a HulaMixer (Life Technologies). Subsequent to a centrifugation step 10 μl supernatant were analyzed in a LC-MS procedure. Peptides were separated using an UltiMate3000 RSLCnano System (Thermo Scientific), composed of a C18 PepMap100μ-Precolumn (300 μm×5 mm; particle size: 5 μm; pore size: 100 Å—Thermo Scientific) and a C18 analytical column (Acclaim Rapid Separation LC (RSLC) Column: 150 mm×5 mm; particle size: 2.2 μm; pore size: 100 Å—Thermo Scientific). A step gradient was applied starting at 8% and ending after 20 min at 30% eluent B (80% acetonitrile, 20% H₂O, 0.1% formic acid).

Q: For B1, which ratio is on record?
A: 0.3

Q: For B2, which ratio is on record?
A: 0.3

Q: For B3, which ratio is on record?
A: 0.6

Biological target: T13, BC2T A6(I/L2)
T13 construct: position 6 library (BC2TA6X), row I/L2
Test: as above
Text: as §1, §2

Q: Which ratio does the source give for B1 here?
A: 0.9

Q: How did the ratio turn out when B2 was run?
A: 0.8

Q: How did the ratio turn out when B3 was run?
A: 0.9

Biological target: T2, BC2T V7A
Test: as above
Text: as §1, §2

Q: With B1 as the binder, how does the ratio read?
A: 0.4

Q: With B2 as the binder, how does the ratio read?
A: 0.5

Q: How did the ratio turn out when B3 was run?
A: 0.7

Biological target: T3, BC2T V7G
Test: as above
Text: as §1, §2

Q: For B1, which ratio is on record?
A: 0.7

Q: B2 was tested. Which ratio did it give?
A: 0.7

Q: With B3 as the binder, how does the ratio read?
A: 0.8

Biological target: T14, BC2T V7(I/L1)
T14 construct: position 7 library, row I/L1
Test: as above
Text: as §1, §2

Q: Which ratio does the source give for B1 here?
A: 0.1

Q: With B2 as the binder, how does the ratio read?
A: 0.1

Q: How did the ratio turn out when B3 was run?
A: 0.3

Biological target: T15, BC2T V7(I/L2)
T15 construct: position 7 library, row I/L2
Test: as above
Text: as §1, §2

Q: B1 was tested. Which ratio did it give?
A: 0.2

Q: How did the ratio turn out when B2 was run?
A: 0.2

Q: B3 was tested. Which ratio did it give?
A: 0.4

Biological target: T4, BC2T V7M
Test: as above
Text: as §1, §2

Q: B1 was tested. Which ratio did it give?
A: 0.3

Q: For B2, which ratio is on record?
A: 0.3

Q: With B3 as the binder, how does the ratio read?
A: 0.5

Biological target: T5, BC2T D2G
Test: as above
Text: as §1, §2

Q: For B1, which ratio is on record?
A: 0.3

Q: Which ratio does the source give for B2 here?
A: 0.4

Q: How did the ratio turn out when B3 was run?
A: 0.5

Biological target: T6, BC2T D2V
Test: as above
Text: as §1, §2

Q: For B1, which ratio is on record?
A: 0.1

Q: With B2 as the binder, how does the ratio read?
A: 0.1

Q: For B3, which ratio is on record?
A: 0.2

Biological target: T16, BC2T D2(I/L1)
T16 construct: position 2 library, row I/L1
Test: as above
Text: as §1, §2

Q: For B1, which ratio is on record?
A: 0.1

Q: For B2, which ratio is on record?
A: 0.1

Q: With B3 as the binder, how does the ratio read?
A: 0.2

Biological target: T7, BC2T R3G
Test: as above
Text: as §1, §2

Q: B1 was tested. Which ratio did it give?
A: 0.9

Q: With B2 as the binder, how does the ratio read?
A: 1

Q: Which ratio does the source give for B3 here?
A: 1

Biological target: T17, BC2T R3(I/L1)
T17 construct: position 3 library (BC2TR3X), row I/L1
Test: as above
Text: as §1, §2

Q: For B1, which ratio is on record?
A: 0.5

Q: How did the ratio turn out when B2 was run?
A: 0.9

Q: B3 was tested. Which ratio did it give?
A: 0.9

Biological target: T8, BC2T K4G
Test: as above
Text: as §1, §2

Q: Which ratio does the source give for B1 here?
A: 0.6

Q: With B2 as the binder, how does the ratio read?
A: 0.9

Q: B3 was tested. Which ratio did it give?
A: 0.9

Biological target: T18, BC2T K4(I/L1)
T18 construct: position 4 library, row I/L1
Test: as above
Text: as §1, §2

Q: Which ratio does the source give for B1 here?
A: 0.1

Q: For B2, which ratio is on record?
A: 0.3

Q: With B3 as the binder, how does the ratio read?
A: 0.4

Biological target: T19, BC2T K4(I/L2)
T19 construct: position 4 library, row I/L2
Test: as above
Text: as §1, §2

Q: With B1 as the binder, how does the ratio read?
A: 0.2

Q: How did the ratio turn out when B2 was run?
A: 0.5

Q: With B3 as the binder, how does the ratio read?
A: 0.6

Biological target: T9, BC2T K4M
Test: as above
Text: as §1, §2

Q: B1 was tested. Which ratio did it give?
A: 0.1

Q: Which ratio does the source give for B2 here?
A: 0.3

Q: Which ratio does the source give for B3 here?
A: 0.5

Biological target: T10, BC2T P1V
Test: as above
Text: as §1, §2

Q: With B1 as the binder, how does the ratio read?
A: 0.2

Q: With B2 as the binder, how does the ratio read?
A: 0.3

Q: With B3 as the binder, how does the ratio read?
A: 0.4

Biological target: T20, BC2T P1(I/L1)
T20 construct: position 1 library, row I/L1
Test: as above
Text: as §1, §2

Q: How did the ratio turn out when B1 was run?
A: 0.4

Q: Which ratio does the source give for B2 here?
A: 0.6

Q: B3 was tested. Which ratio did it give?
A: 0.7

Biological target: T11, BC2T A5V
Test: as above
Text: as §1, §2

Q: For B1, which ratio is on record?
A: 0.1

Q: For B2, which ratio is on record?
A: 0.1

Q: B3 was tested. Which ratio did it give?
A: 0.2

Biological target: T21, BC2T A5(I/L1)
T21 construct: position 5 library, row I/L1
Test: as above
Text: as §1, §2

Q: With B1 as the binder, how does the ratio read?
A: 0.1

Q: With B2 as the binder, how does the ratio read?
A: 0.1

Q: With B3 as the binder, how does the ratio read?
A: 0.2

Biological target: T22, BC2T A5(I/L2)
T22 construct: position 5 library, row I/L2
Test: as above
Text: as §1, §2

Q: For B1, which ratio is on record?
A: 0.1

Q: B2 was tested. Which ratio did it give?
A: 0.1

Q: With B3 as the binder, how does the ratio read?
A: 0.2

Biological target: T12, BC2T A5M
Test: as above
Text: as §1, §2

Q: B1 was tested. Which ratio did it give?
A: 0.1

Q: For B2, which ratio is on record?
A: 0.1

Q: Which ratio does the source give for B3 here?
A: 0.2

Biological target: T23, BC2T P1(I/L2)
T23 construct: position 1 library, row I/L2
Test: as above
Text: as §1, §2

Q: With B1 as the binder, how does the ratio read?
A: 0.3

Q: How did the ratio turn out when B2 was run?
A: 0.5

Q: B3 was tested. Which ratio did it give?
A: 0.6
